Assay results published in patent publication US9827292B2, “Use of KGF in the treatment of menopausal disorders” (Università degli Studi di Roma “La Sapienza”, priority 2012, dated 2017).

What was measured:
[1] = tested on: human oestrogen-sensitive keratinocytes (KCs); assay: Proliferation of primary vaginal keratinocytes (Ki67 immunofluorescence; crystal violet); type: cell-based; settings: for proliferative effect in the presence of tamoxifen: tamoxifen 100 nM, anti-Ki67 and crystal violet, FIG. 1D
Protocol: The oestrogen receptor α-positive MCF-7 human breast adenocarcinoma cell line, acquired from American Type Culture Collection (no. HTB-22, ATCC-LGC Promochem, Teddington, UK), was cultured in Dulbecco's modified eagle's medium (DMEM; Invitrogen, Karlsruhe, Germany), supplemented with 10% foetal bovine serum (FBS; Invitrogen) and antibiotics. Primary cultures of human oestrogen-sensitive keratinocytes (KCs) were established from 1 cm^2 full-thickness mucosal biopsy of the vaginal vestibule. Following enzymatic dissociation, the keratinocytes were seeded onto culture plates coated with collagen IV (10 mg/ml), as previously reported [Panici et al, 2007], and were maintained in basal medium of the keratinocytes (KBM, Lonza) supplemented with aliquots of KGM (Lonza), with medium change twice a week. For all the experiments with 17β-oestradiol (E2) and tamoxifen, the MCF-7 cells were cultivated in DMEM without phenol red with 10% FBS treated with dextran/carbon (Invitrogen), and the KCs were transferred to a steroid medium of reduced concentration (KGM without EGF and BPE). […]
The cells, grown on glass coverslips, were treated as described above, then fixed in 4% paraformaldehyde in phosphate-buffered saline (PBS) for 30 min at 25° C., followed by treatment with 0.1 M glycine in PBS for 20 min at 25° C. and with 0.1% Triton X-100 in PBS for an additional 5 min at 25° C. to allow permeabilisation. To assess cell proliferation, the cells were incubated with an anti-Ki67 rabbit polyclonal antibody (1:50 in PBS; Zymed Laboratories, San Francisco, Calif.), which identifies cycling cells. The primary antibody was visualised using Texas Red conjugated goat anti-rabbit IgG (1:100 in PBS; Jackson ImmunoResearch Laboratories, West Grove, Pa.). The nuclei were visualised using 4′,6-diamido-2-phenylindole dihydrochloride (DAPI) (1:10000 in PBS; Sigma-Aldrich). Fluorescence signals were analysed by recording stained images using a cooled CCD colour digital camera SPOT-2 (Diagnostic Instruments Incorporated, Sterling Heights, Mich.) and Axiovision software (Carl Zeiss Inc., Oberkochen, Germany).
The percentage of Ki67-positive cells was evaluated by counting, for each treatment, a total of 500 cells, randomly taken from ten microscopic fields in three different experiments, expressed as mean value±95% CI and recorded as graphs. For the experiments concerning localisation of ERα, the cytoskeleton of actin was visualised using TRITC phalloidin (1:100 in PBS) and ERα was visualised using an anti-ERα monoclonal antibody (Santa Cruz) (1:100 in PBS). The stained single and combined images were captured using Zeiss Apotome® and AxioVision software (Carl Zeiss, Jena, Germany) using 40× lenses.
To evaluate the cytotoxicity of cells treated with tamoxifen, the MCF-7 cells were treated as described above, fixed for 10 min in a solution of 10% acetic acid-10% methanol, stained with crystal violet (1% w/v) and photographed using a Power Shot G5 digital camera (Canon, Inc., Tokyo, Japan).

[2] = tested on: ERalpha; assay: Nucleocytoplasmic fractionation and Western blot for ER in MCF-7 cells; type: cell-based, human; settings: 5 or 30 min treatment, FIG. 4A
Protocol: The oestrogen receptor α-positive MCF-7 human breast adenocarcinoma cell line, acquired from American Type Culture Collection (no. HTB-22, ATCC-LGC Promochem, Teddington, UK), was cultured in Dulbecco's modified eagle's medium (DMEM; Invitrogen, Karlsruhe, Germany), supplemented with 10% foetal bovine serum (FBS; Invitrogen) and antibiotics. Primary cultures of human oestrogen-sensitive keratinocytes (KCs) were established from 1 cm^2 full-thickness mucosal biopsy of the vaginal vestibule. […]
MCF-7 cells untreated or treated with KGF or E2 were lysed in RIPA buffer. […] The bound antibody was detected by enhanced chemiluminescence detection reagents (Pierce Biotechnology, Inc, Rockford, Ill., USA), according to manufacturer's instructions. […] Densitometric analysis was performed using Quantity One Program (Bio-Rad Laboratories srl, Segrate, MI, Italy).
The cells were harvested in PBS and centrifuged at 2000 rpm for 5 minutes to obtain a pellet, resuspended in cellular lysis buffer containing Hepes 10 mM pH 8, 50 mM NaCl, 1 mM EDTA pH 8, 0.2% TritonX100, sucrose 500 mM and protease inhibitors, stirred, and placed in ice for 15 min. […] The efficiency of the fractionation was analysed by means of immunoblotting using an anti-β-tubulin antibody as cytoplasmic marker and an anti-lamin B antibody as nuclear marker.

C[C@]12CC[C@@H]3c4ccc(O)cc4CC[C@H]3[C@@H]1CC[C@@H]2O [E2, 17β-oestradiol]
efficacy in terms of cell proliferation of E2 compared to KGF (Ki67-positive cells) ([1]; low doses (0.5 ng/ml), 24 h, FIG. 1A): 1.2 fold increase | proliferative effect in the presence of tamoxifen [1]: inhibited by the presence of tamoxifen | redistribution of ER between cytoplasmic and nuclear fractions [2]: dramatic redistribution of ER in the nucleus

B1: keratinocyte growth factor (protein, listed as Homo sapiens)
chain: MHKWILTWILPTLLYRSCFHIICLVGTISLACNDMTPEQMATNVNCSSPERHTRSYDYMEGGDIRVRRLFCRTQWYLRIDKRGKVKGTQEMKNNYNIMEIRTVAVGIVAIKGVESEFYLAMNKEGKLYAKKECNEDCNFKELILENHYNTYASAKWTHNGGEMFVALNQKGIPVRGKKTKKEQKTAHFLPMAIT
notes: human recombinant KGF (Upstate Biotechnology)
proliferative effect compared to E2 (Ki67-positive cells) ([1]; 20 ng/ml for KGF and 2.7 ng/ml for E2, FIG. 1A): absolutely comparable to that of the hormone | stimulation of proliferation of the vaginal epithelium in pre-menopausal and post-menopausal populations ([1]; 20 ng/ml, KC from pre-menopausal and post-menopausal women, FIG. 1B): able to stimulate proliferation of the vaginal epithelium in a manner comparable to that of oestradiol | proliferative effect in the presence of tamoxifen [1]: able to stimulate cell proliferation even in the presence of tamoxifen | redistribution of ER between cytoplasmic and nuclear fractions [2]: does not appear able to induce any significant redistribution of the receptor in the nucleus
